Target: Bcl-2 (UniProt P10415)
Test: co-IP of Flag-Beclin 1
Details: reference: wild type; sites S90

- binding against the reference: stronger
Substance: Beclin 1 (from UniProt Q14457) S90A

Reference: publication PMC5660092
